The values below come from publication PMC6018003.

Assay [1] addresses T1, H46R/H48Q/C146S Sod1 labeled with Alexa-546 at C57 (yeast).
T1 sequence (P00445 2-154 with H46R H48Q C146S, looked up): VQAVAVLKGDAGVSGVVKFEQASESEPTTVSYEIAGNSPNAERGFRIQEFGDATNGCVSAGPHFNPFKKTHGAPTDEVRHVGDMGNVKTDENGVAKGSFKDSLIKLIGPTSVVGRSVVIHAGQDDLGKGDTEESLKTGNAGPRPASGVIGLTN
In words: other fluorescence titration; microplate, quenching of Alexa-546-labeled Sod1 on titration with Ccs1; Sod1 zinc bound and disulfide reduced (E, Zn-Sod1^SH); 20 mM Tris pH 7.5, 150 mM NaCl, 1 mM TCEP, 0.01% octyl glucoside and CHAPS.

Assay [2] has the same target. The description is as above. The source holds these as a separate data set.
The target is the same in assay [3]. In words: other fluorescence titration; microplate, quenching of Alexa-546-labeled Sod1 on titration with Ccs1; Sod1 metal deficient and disulfide reduced (E, E-Sod1^SH); 20 mM Tris pH 7.5, 150 mM NaCl, 1 mM TCEP, 0.01% octyl glucoside and CHAPS.
Assay [4] shares this target. Described as above. The source holds these as a separate data set.

B1: copper chaperone for Sod1 (Ccs1), full-length wild type (natural protein)
chain: GHMTTNDTYEATYAIPMHCENCVNDIKACLKNVPGINSLNFDIEQQIMSVESSVAPSTIINTLRNCGKDAIIRGAGKPNSSAVAILETFQKYTIDQKKDTAVRGLARIVQVGENKTLFDITVNGVPEAGNYHASIHEKGDVSKGVESTGKVWHKFDEPIECFNESDLGKNLYSGKTFLSAPLPTWQLIGRSFVISKSLNHPENEPSSVKDYSFLGVIARSAGVWENNKQVCACTGKTVWEERKDALANNIK
Consider B1, for which the Kd (usually the constant that tells how readily two partners part at equilibrium) in assay [1] was determined as 114 nM; in assay [2] it was 134 nM; in assay [3], 36 nM; in assay [4], 34 nM.
